Tests used:
[1] = molecular target: T1, PA0932 (PaCysM, cysteine synthase B) (Pseudomonas aeruginosa, UniProt Q9I526); test: ninhydrin steady-state kinetics, global fit (Km […]); substrate inhibition Ki; type: biochemical
T1 construct: gene cysM; recombinant, N-terminal His-tag with TEV cleavage site; homodimer
T1 sequence (Q9I526 1-299): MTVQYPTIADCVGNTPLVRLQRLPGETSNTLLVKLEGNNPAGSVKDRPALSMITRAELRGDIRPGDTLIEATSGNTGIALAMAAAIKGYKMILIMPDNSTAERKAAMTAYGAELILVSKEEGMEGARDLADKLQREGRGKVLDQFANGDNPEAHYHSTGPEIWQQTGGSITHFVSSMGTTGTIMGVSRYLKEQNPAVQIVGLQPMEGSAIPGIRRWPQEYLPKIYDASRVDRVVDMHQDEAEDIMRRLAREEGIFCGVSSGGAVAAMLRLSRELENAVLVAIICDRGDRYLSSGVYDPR

[2] = molecular target: T1, PA0932 (PaCysM, cysteine synthase B); test: UV-vis absorption ([…] nm), near-UV circular dichroism, fluorescence; type: binding
[3] = molecular target: T2, PA2709 (PaCysK, cysteine synthase A) (Pseudomonas aeruginosa, UniProt Q9I0D3); test: as above; type: binding
T2 construct: gene cysK; recombinant, N-terminal His-tag with TEV cleavage site; homodimer
T2 sequence (Q9I0D3 1-324): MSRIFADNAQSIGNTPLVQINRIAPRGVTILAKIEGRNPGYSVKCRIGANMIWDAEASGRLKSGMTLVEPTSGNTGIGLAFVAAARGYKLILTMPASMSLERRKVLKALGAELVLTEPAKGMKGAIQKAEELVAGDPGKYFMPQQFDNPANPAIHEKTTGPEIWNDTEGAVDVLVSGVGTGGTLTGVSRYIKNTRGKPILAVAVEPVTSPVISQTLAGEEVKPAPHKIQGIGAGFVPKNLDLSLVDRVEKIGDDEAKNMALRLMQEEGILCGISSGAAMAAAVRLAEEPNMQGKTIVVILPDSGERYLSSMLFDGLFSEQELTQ

[4] = substrate: CC(=O)OC[C@H](N)C(=O)O; test: UV-vis absorption of PLP intermediates; steady-state kinetics with bisulfide electrode (Km); type: biochemical, Pseudomonas aeruginosa; conditions: pyridoxal […]'-phosphate (PLP) active site; forms alpha-aminoacrylate intermediate with PLP; pH 7.0; 25.0 °C
[5] = molecular target: the molecule itself; test: SEC-MALS; Agilent GPC/SEC, AdvanceBio SEC column (300 Å), dual-angle light-scattering detector, BSA as calibrant; protein loaded at 1 mg/mL in buffer H (100 mM HEPES, pH 7.0), 20 °C, 1 mL/min
[6] = substrate: CC(=O)OC[C@H](N)C(=O)O; test: UV-vis absorption of PLP intermediates; steady-state kinetics, ninhydrin assay with thiosulfate (Km); type: biochemical, Pseudomonas aeruginosa; conditions: pyridoxal […]'-phosphate (PLP) active site; forms alpha-aminoacrylate intermediate with PLP; pH 7.0; 25.0 °C

O=S(O)(O)=S [thiosulfate]
Ki [1]: 970 ± 830 µM

Cc1ncc(COP(=O)(O)O)c(C=O)c1O [PLP, pyridoxal 5′-phosphate]
UV-vis absorption (413 nm), near-UV circular dichroism, fluorescence [2]: absorption of the PLP cofactor bound as an internal aldimine to the catalytic lysine | UV-vis absorption (411 nm), near-UV circular dichroism, fluorescence [3]: absorption of the PLP cofactor bound as an internal aldimine to the catalytic lysine

B1: PA2709 (PaCysK, cysteine synthase A) (Pseudomonas aeruginosa PAO1) (protein)
chain: MSRIFADNAQSIGNTPLVQINRIAPRGVTILAKIEGRNPGYSVKCRIGANMIWDAEASGRLKSGMTLVEPTSGNTGIGLAFVAAARGYKLILTMPASMSLERRKVLKALGAELVLTEPAKGMKGAIQKAEELVAGDPGKYFMPQQFDNPANPAIHEKTTGPEIWNDTEGAVDVLVSGVGTGGTLTGVSRYIKNTRGKPILAVAVEPVTSPVISQTLAGEEVKPAPHKIQGIGAGFVPKNLDLSLVDRVEKIGDDEAKNMALRLMQEEGILCGISSGAAMAAAVRLAEEPNMQGKTIVVILPDSGERYLSSMLFDGLFSEQELTQ
notes: recombinant, N-terminal His-tag with TEV cleavage site; homodimer
Km [4]: 1100 ± 100 µM | kcat [4]: 102 ± 3 s⁻¹ | kcat/Km [4]: 90000 ± 9000 M⁻¹ s⁻¹

B2: Cysteine synthase A (PA2709, PaCysK) from Pseudomonas aeruginosa (enzyme, Pseudomonas aeruginosa PAO1, UniProt Q9I0D3 1-324, looked up)
chain: MSRIFADNAQSIGNTPLVQINRIAPRGVTILAKIEGRNPGYSVKCRIGANMIWDAEASGRLKSGMTLVEPTSGNTGIGLAFVAAARGYKLILTMPASMSLERRKVLKALGAELVLTEPAKGMKGAIQKAEELVAGDPGKYFMPQQFDNPANPAIHEKTTGPEIWNDTEGAVDVLVSGVGTGGTLTGVSRYIKNTRGKPILAVAVEPVTSPVISQTLAGEEVKPAPHKIQGIGAGFVPKNLDLSLVDRVEKIGDDEAKNMALRLMQEEGILCGISSGAAMAAAVRLAEEPNMQGKTIVVILPDSGERYLSSMLFDGLFSEQELTQ
modifications: PLP cofactor bound as an internal aldimine to the catalytic lysine (Lys44, based on sequence alignments)
notes: Cysteine synthase A (CysK, PA2709) of P. aeruginosa PAO1; gene optimised for E. coli, synthesised and cloned between NdeI and BamHI into pET28a-TEV; calculated mass for a dimer 69 kDa; also called O-acetylserine sulfhydrylase; OASS-A; not shown: His6, N-terminal, cleaved
stoichiometry N [5]: 2

B3: PA0932 (PaCysM, cysteine synthase B) (Pseudomonas aeruginosa PAO1) (protein)
chain: MTVQYPTIADCVGNTPLVRLQRLPGETSNTLLVKLEGNNPAGSVKDRPALSMITRAELRGDIRPGDTLIEATSGNTGIALAMAAAIKGYKMILIMPDNSTAERKAAMTAYGAELILVSKEEGMEGARDLADKLQREGRGKVLDQFANGDNPEAHYHSTGPEIWQQTGGSITHFVSSMGTTGTIMGVSRYLKEQNPAVQIVGLQPMEGSAIPGIRRWPQEYLPKIYDASRVDRVVDMHQDEAEDIMRRLAREEGIFCGVSSGGAVAAMLRLSRELENAVLVAIICDRGDRYLSSGVYDPR
notes: as for B1
Km [6]: 2700 ± 600 µM | kcat [6]: 209 ± 25 s⁻¹ | kcat/Km [6]: 79000 ± 20000 M⁻¹ s⁻¹

B4: Cysteine synthase B (PA0932, PaCysM) from Pseudomonas aeruginosa (enzyme, Pseudomonas aeruginosa PAO1, UniProt Q9I526 1-299, looked up)
chain: MTVQYPTIADCVGNTPLVRLQRLPGETSNTLLVKLEGNNPAGSVKDRPALSMITRAELRGDIRPGDTLIEATSGNTGIALAMAAAIKGYKMILIMPDNSTAERKAAMTAYGAELILVSKEEGMEGARDLADKLQREGRGKVLDQFANGDNPEAHYHSTGPEIWQQTGGSITHFVSSMGTTGTIMGVSRYLKEQNPAVQIVGLQPMEGSAIPGIRRWPQEYLPKIYDASRVDRVVDMHQDEAEDIMRRLAREEGIFCGVSSGGAVAAMLRLSRELENAVLVAIICDRGDRYLSSGVYDPR
modifications: PLP cofactor bound as an internal aldimine to the catalytic lysine (Lys45, based on sequence alignments)
notes: Cysteine synthase B (CysM, PA0932) of P. aeruginosa PAO1; gene optimised for E. coli, synthesised and cloned between NdeI and BamHI into pET28a-TEV; calculated mass for a dimer 65 kDa; also called OASS-B; S-sulfocysteine synthase; not shown: His6, N-terminal, cleaved
stoichiometry N [5]: 2

— paper PMC12800425, “De novo cysteine biosynthesis in Pseudomonas aeruginosa: Characterization of the two main cysteine synthase isoforms” (iScience, 2025)
